Columns and labels:
[1] = target: T1, FcgRIIA 131H on CHO cells (UniProt P12318 34-317, limits assumed); assay: flow cytometry on CHO cells over-expressing FcγRIIA 131H, anti-human IgG AF-488 detection
T1 construct: whole, on cells; also called CHO.FcγRIIA.131H
T1 sequence (looked up): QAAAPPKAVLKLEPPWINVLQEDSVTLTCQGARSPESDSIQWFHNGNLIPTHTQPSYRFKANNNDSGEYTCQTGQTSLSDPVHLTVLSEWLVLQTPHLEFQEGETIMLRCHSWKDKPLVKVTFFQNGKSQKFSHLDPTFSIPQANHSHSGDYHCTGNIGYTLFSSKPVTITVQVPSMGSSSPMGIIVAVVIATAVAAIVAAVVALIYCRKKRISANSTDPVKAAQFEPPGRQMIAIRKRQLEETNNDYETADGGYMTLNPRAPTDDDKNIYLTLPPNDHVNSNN
From the text: (§1) However, in order to circumnavigate potential off-target effects such as systemic CD137 activation due to crosslinking by Fcγ receptor binding and to decrease the possibility of inducing ADCC of immune cells, for example T cells, that express both targets, it was decided to decrease the Fcγ receptor binding ability of the anti-human CD137/PD-L1 mAb² by introduction of a LALA mutation in the CH2 domain (see Example 3.2 for details on the LALA format).
(§2) Briefly, CHO.FcγRIIA.131H, […], CHO.FcγRIIIA.158F, CHO.FcγRIIIA.158V, CHO.FcγRIIB, or CHO.WT suspensions were prepared in FACS buffer (DPBS containing (Gibco, 14190-094) containing 0.5% BSA (Sigma, A7906)) and seeded at 1×10⁵ cell/well in 100 μl in round bottomed 96-well plates (VWR, 734-1797). […] The washed cells were resuspended in the diluted antibody mixture, incubated at 4° C. for 30 minutes, and then washed once in FACS buffer. […] The geometric mean fluorescence intensity (GMFI) values were plotted vs the log concentration of antibody and the resulting curves were fitted using the log (agonist) vs response equation in GraphPad Prism.

[2] = target: T2, FcgRIIIA 158F on CHO cells (UniProt P08637 17-254, limits assumed); assay: flow cytometry on CHO cells over-expressing FcγRIIIA 158F, anti-human IgG AF-488 detection
T2 construct: whole, on cells; also called CHO.FcγRIIIA.158F
T2 sequence (P08637 17-254 limits assumed): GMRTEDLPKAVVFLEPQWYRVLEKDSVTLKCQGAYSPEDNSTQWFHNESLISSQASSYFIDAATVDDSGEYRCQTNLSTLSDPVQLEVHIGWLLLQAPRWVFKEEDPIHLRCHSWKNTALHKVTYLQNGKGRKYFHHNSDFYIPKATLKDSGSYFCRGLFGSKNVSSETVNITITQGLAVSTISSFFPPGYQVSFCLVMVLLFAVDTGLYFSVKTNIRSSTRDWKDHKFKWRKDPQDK
From the text: as §1, §2

FcgRIIB on CHO cells = target: T3, FcgRIIB on CHO cells (UniProt P31994 43-310); assay: flow cytometry on CHO cells over-expressing FcγRIIB, anti-human IgG AF-488 detection
T3 construct: whole, on cells; also called CHO.FcγRIIB
T3 sequence (looked up): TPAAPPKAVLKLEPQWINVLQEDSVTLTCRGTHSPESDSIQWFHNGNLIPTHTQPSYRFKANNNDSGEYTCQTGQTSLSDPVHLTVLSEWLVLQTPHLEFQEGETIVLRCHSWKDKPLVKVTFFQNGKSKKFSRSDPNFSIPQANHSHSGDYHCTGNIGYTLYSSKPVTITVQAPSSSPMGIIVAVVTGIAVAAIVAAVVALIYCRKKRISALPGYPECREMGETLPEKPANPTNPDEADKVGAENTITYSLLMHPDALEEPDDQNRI
From the text: as §1, §2

[3] = target: T4, FcgRIIIA 158V on CHO cells (UniProt P08637 17-254); assay: flow cytometry on CHO cells over-expressing FcγRIIIA 158V, anti-human IgG AF-488 detection
T4 construct: whole, on cells; also called CHO.FcγRIIIA.158V
T4 sequence (P08637 17-254 F176V limits assumed): as the sequence (P08637 17-254 limits assumed) above, with F160V counted along it
From the text: as §1, §2

[4] = target: human PD-L1, cell-surface (human, UniProt Q9NZQ7 19-290); assay: cell-based or functional assay
Sequence of human PD-L1, cell-surface (Q9NZQ7 19-290): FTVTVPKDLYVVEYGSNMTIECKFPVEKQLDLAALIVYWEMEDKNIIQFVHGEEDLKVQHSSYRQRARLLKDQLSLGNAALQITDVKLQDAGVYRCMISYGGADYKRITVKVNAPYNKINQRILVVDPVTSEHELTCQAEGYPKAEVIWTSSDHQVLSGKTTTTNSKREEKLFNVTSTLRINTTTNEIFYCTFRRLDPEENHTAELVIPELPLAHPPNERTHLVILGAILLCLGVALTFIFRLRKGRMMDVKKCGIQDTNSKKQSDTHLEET

hPD-L1-rCD4-His [5] = target: T5, hPD-L1-rCD4-His (human); assay: SPR, culture supernatants
T5 construct: also called human PD-L1-rCD4-His; hu-PD-L1-rCD4-His
T5 sequence (chain, as listed by the source): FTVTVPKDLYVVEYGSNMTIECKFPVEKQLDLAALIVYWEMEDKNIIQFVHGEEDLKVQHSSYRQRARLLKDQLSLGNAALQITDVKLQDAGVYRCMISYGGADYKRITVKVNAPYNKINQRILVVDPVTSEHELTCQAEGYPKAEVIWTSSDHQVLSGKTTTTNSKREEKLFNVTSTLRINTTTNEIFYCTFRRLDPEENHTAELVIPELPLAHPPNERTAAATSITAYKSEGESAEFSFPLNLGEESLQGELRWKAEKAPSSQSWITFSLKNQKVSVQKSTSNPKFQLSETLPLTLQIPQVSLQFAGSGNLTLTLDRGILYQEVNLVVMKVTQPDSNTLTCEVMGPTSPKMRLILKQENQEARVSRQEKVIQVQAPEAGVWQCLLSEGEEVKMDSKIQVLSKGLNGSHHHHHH

hPD-L1-rCD4-His [6] = target: T5, hPD-L1-rCD4-His; assay: SPR
Cyno PD-L1-rCD4-His = target: T6, Cyno PD-L1-rCD4-His (cynomolgus, UniProt Q9NZQ7 19-238 (human entry)); assay: SPR
T6 construct: also called cynomolgus PD-L1-rCD4-His; not shown: rat CD4 domains 3 and 4 and His tag
T6 sequence (Q9NZQ7 other isoform, or with tags, fused parts or gaps): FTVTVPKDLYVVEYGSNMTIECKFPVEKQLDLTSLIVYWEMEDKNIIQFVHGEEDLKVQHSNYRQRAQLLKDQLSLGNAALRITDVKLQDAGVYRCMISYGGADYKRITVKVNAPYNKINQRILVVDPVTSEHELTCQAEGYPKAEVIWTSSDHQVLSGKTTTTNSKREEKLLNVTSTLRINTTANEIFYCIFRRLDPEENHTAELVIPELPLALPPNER

[7] = target: T7, human CD137, cell-surface (human, UniProt Q07011 24-255); assay: cell-based or functional assay
[8] = target: T7, human CD137, cell-surface; assay: cell-based or functional assay; remark: listed apart in the source
[9] = target: T7, human CD137, cell-surface; assay: cell-based or functional assay; remark: listed apart in the source
[10] = target: T7, human CD137, cell-surface; assay: cell-based or functional assay; remark: listed apart in the source
[11] = target: T7, human CD137, cell-surface; assay: cell-based or functional assay; remark: listed apart in the source
[12] = target: mouse CD137, cell-surface (mouse, UniProt P20334 24-256); assay: cell-based or functional assay
Sequence of mouse CD137, cell-surface (P20334 24-256): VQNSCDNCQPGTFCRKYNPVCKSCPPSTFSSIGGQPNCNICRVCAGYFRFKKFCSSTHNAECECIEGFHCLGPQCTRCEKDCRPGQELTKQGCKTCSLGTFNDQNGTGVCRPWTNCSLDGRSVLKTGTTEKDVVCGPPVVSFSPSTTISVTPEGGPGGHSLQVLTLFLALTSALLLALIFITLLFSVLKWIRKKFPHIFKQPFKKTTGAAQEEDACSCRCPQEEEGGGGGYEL

B1: G1/4420 (antibody, human IgG1, kappa)
heavy: not shown
light: DVVMTQTPLSLPVSLGDQASISCRSSQSLVHSNGNTYLRWYLQKPGQSPKVLIYKVSNRFSGVPDRFSGSGSGTDFTLKISRVEAEDLGVYFCSQSTHVPWTFGGGTKLEIKRTVAAPSVFIFPPSDEQLKSGTASVVCLLNNFYPREAKVQWKVDNALQSGNSQESVTEQDSKDSTYSLSSTLTLSKADYEKHKVYACEVTHQGLSSPVTKSFNRGEC
**Q.** Does B1 bind [1]?
**A.** Result: binds

**Q.** Does B1 bind [2]?
**A.** Result: binds

**Q.** Does B1 bind (FcgRIIB on CHO cells)?
**A.** Result: binds

**Q.** Does B1 bind [3]?
**A.** Result: binds

B2: G1/280_02_G02 (antibody, human IgG1, V domains shown)
VH: EVQLVQSGAEVKRPGASVKVSCKASGYTFTSYGISWVRQAPGQGLEWMGWISAYNGNTNYAQKLQGRVTMTTDTSTSTAYMELRSLRSDDTAVYYCARDLFPTIFGVSYYYYWGQGTLVTVSS
VL: QSALTQPASVSGSPGQSITISCTGTSSDVGGYNSVSWYQQFPGKAPKLMIFEVTNRPSGVSDRFSGSKSDNTASLTISGLQAEDEAEYYCSSFKRGSTLVVFG
**Q.** With B2 as the binder, how does the “EC50, luciferase, Jurkat-NFAT PD-1 / PD-L1 cell co-culture assay” value [4] read?
**A.** The value was 4.2 nM.

B3: G1/929_01_A11 (antibody, IgG1, V domains shown)
VH: EVQLVQSGAEVKRPGASVKVSCKASGYTFTSYGISWVRQAPGQGLEWMGWISAYSGGTNYAQKLQGRVTMTTDTSTSTAYMELRSLRSDDTAVYYCARDLFPTIFGVSYYYYWGQGTLVTVSS
VL: DIQMTQSPSTLSASVGDRVTITCRASQSISGRLAWYQQKPGKAPNLLIYEASNLESGVPSRFSGSGSGTEFTLTISSLQPEDFATYYCQQSYSWPRTFGQGTKVEIK
notes: IgG1 without LALA
**Q.** Does B3 bind (hPD-L1-rCD4-His [5])?
**A.** Result: binds

B4: G1/929_01_A02 (antibody, IgG1, V domains shown)
VH: EVQLVQSGAEVKRPGASVKVSCKASGYTFTSYGISWVRQAPGQGLEWMGWISAYSGGTNYAQKLQGRVTMTTDTSTSTAYMELRSLRSDDTAVYYCARDLFPTIFGVSYYYYWGQGTLVTVSS
VL: DIQMTQSPSTLSASVRDRVIITCRASQSIGNRLAWYQHKPGKAPKLLIYEASTSETGVPSRFSGSGSGTDFTLTISSLQPEDFATYYCQQSYSTPYTFGQGTKLEIK
notes: IgG1 without LALA
**Q.** What does the source list for B4?
**A.** fold lower affinity than G1-AA/E12v2 (hPD-L1-rCD4-His [6]): > 10 fold; fold lower affinity than G1-AA/E12v2 (Cyno PD-L1-rCD4-His): > 10 fold

B5: G1/929_01_A08 (antibody, IgG1, V domains shown)
VH: EVQLVQSGAEVKRPGASVKVSCKASGYTFTSYGISWVRQAPGQGLEWMGWISAYSGGTNYAQKLQGRVTMTTDTSTSTAYMELRSLRSDDTAVYYCARDLFPTIFGVSYYYYWGQGTLVTVSS
VL: DIQMTQSPSTLSASVGDRVTITCRASQSISGRLAWYQQKPGKAPNLLIYEASNLESGVPSRFSGSGSGTEFTLTISSLQPEDFATYYCQQSYSTPRVTFGQGTKVEIK
notes: IgG1 without LALA; SGGT variant of G1/894_08_E05, became G1-AA/E05v2 with LALA
**Q.** Does B5 bind (hPD-L1-rCD4-His [5])?
**A.** Result: binds

B6: G1-AA/20H4.9 (antibody, V domains shown)
VH: QVQLQQWGAGLLKPSETLSLTCAVYGGSFSGYYWSWIRQSPEKGLEWIGEINHGGYVTYNPSLESRVTISVDTSKNQFSLKLSSVTAADTAVYYCARDYGPGNYDWYFDLWGRGTLVTVSS
VL: EIVLTQSPATLSLSPGERATLSCRASQSVSSYLAWYQQKPGQAPRLLIYDASNRATGIPARFSGSGSGTDFTLTISSLEPEDFAVYYCQQRSNWPPALTFGGGTKVEIKR
**Q.** What does the source list for B6?
**A.** EC50 (nM), hIL-2 release, CD8+ T cells, donor 171115A, HEK.hPD-L1 assay, crosslinked with anti-hCH2 [7]: 0.21 nM; EC50 (nM), hIL-2 release, CD8+ T cells, donor 171115A, MDA-MB-231 assay, crosslinked with anti-hCH2 [7]: 0.31 nM; EC50 (nM), hIL-2 release, CD8+ T cells, donor 171115B, HEK.hPD-L1 assay, crosslinked with anti-hCH2 [7]: 0.29 nM; EC50 (nM), hIL-2 release, CD8+ T cells, donor 171115B, MDA-MB-231 assay, crosslinked with anti-hCH2 [7]: 0.28 nM; EC50, hIL-2 release, primary human CD8+ T cells, crosslinked with anti-hCH2 [8]: 0.5 nM; Emax (pg/ml), IFN-γ release, CEFT antigen recall assay, crosslinked with anti-human CH2 (EC50 N/A) [9]: 13000 pg/mL; EC50 (nM), IFN-γ release, human MLR, crosslinked with anti-human CH2 [10]: 1.9 nM; EC50 (nM), IFN-γ release, CEF antigen recall assay, crosslinked with anti-human CH2 [11]: 0.33 nM

B7: FS22m-063-AA/HeID1.3 (bispecific antibody, human IgG1, kappa, L234A L235A)
heavy: QVQLQESGPGLVRPSQTLSLTCTVSGSTFSGYGVNWVRQPPGRGLEWIGMIWGDGNTDYNSALKSRVTMLVDTSKNQFSLRLSSVTAADTAVYYCARERDYRLDYWGQGSLVTVSSASTKGPSVFPLAPSSKSTSGGTAALGCLVKDYFPEPVTVSWNSGALTSGVHTFPAVLQSSGLYSLSSVVTVPSSSLGTQTYICNVNHKPSNTKVDKKVEPKSCDKTHTCPPCPAPEAAGGPSVFLFPPKPKDTLMISRTPEVTCVVVDVSHEDPEVKFNWYVDGVEVHNAKTKPREEQYNSTYRVVSVLTVLHQDWLNGKEYKCKVSNKALPAPIEKTISKAKGQPREPQVYTLPPSRDEPYWSYVSLTCLVKGFYPSDIAVEWESNGQPENNYKTTPPVLDSDGSFFLYSKLTVMNYRWELGNVFSCSVMHEALHNHYTQKSLSLSPG
light: DIQMTQSPASLSASVGETVTITCRASGNIHNYLAWYQQKQGKSPQLLVYNAKTLADGVPSRFSGSGSGTQYSLKINSLQPEDFGSYYCQHFWSTPRTFGGGTKLEIKRTVAAPSVFIFPPSDEQLKSGTASVVCLLNNFYPREAKVQWKVDNALQSGNSQESVTEQDSKDSTYSLSSTLTLSKADYEKHKVYACEVTHQGLSSPVTKSFNRGEC
**Q.** With B7 as the binder, how does the “Emax (pg/ml), mIFN-γ release, OT-1 CD8+ T cell activation assay (EC50 n/a)” value [12] read?
**A.** Its value is 3850 pg/mL.

From patent publication US20250346679A1 (INVOX PHARMA, published 2025)
